B1: P68104 (protein, UniProt P68104 1-462, looked up)
chain: MGKEKTHINIVVIGHVDSGKSTTTGHLIYKCGGIDKRTIEKFEKEAAEMGKGSFKYAWVLDKLKAERERGITIDISLWKFETSKYYVTIIDAPGHRDFIKNMITGTSQADCAVLIVAAGVGEFEAGISKNGQTREHALLAYTLGVKQLIVGVNKMDSTEPPYSQKRYEEIVKEVSTYIKKIGYNPDTVAFVPISGWNGDNMLEPSANMPWFKGWKVTRKDGNASGTTLLEALDCILPPTRPTDKPLRLPLQDVYKIGGIGTVPVGRVETGVLKPGMVVTFAPVNVTTEVKSVEMHHEALSEALPGDNVGFNVKNVSVKDVRRGNVAGDSKNDPPMEAAGFTAQVIILNHPGQISAGYAPVLDCHTAHIACKFAELKEKIDRRSGKKLEDGPKFLKSGDAAIVDMVPGKPMCVESFSDYPPLGRFAVRDMRQTVAVGVIKAVDKKAAGAGKVTKSAQKAQKAK
modifications: full-length
B2: P04899 (protein, UniProt P04899 1-355, looked up)
chain: MGCTVSAEDKAAAERSKMIDKNLREDGEKAAREVKLLLLGAGESGKSTIVKQMKIIHEDGYSEEECRQYRAVVYSNTIQSIMAIVKAMGNLQIDFADPSRADDARQLFALSCTAEEQGVLPDDLSGVIRRLWADHGVQACFGRSREYQLNDSAAYYLNDLERIAQSDYIPTQQDVLRTRVKTTGIVETHFTFKDLHFKMFDVGGQRSERKKWIHCFEGVTAIIFCVALSAYDLVLAEDEEMNRMHESMKLFDSICNNKWFTDTSIILFLNKKDLFEEKITHSPLTICFPEYTGANKYDEAASYIQSKFEDLNKRKDTKEIYTHFTCATDTKNVQFVFDAVTDVIIKNNLKDCGLF
modifications: full-length
B3: P25705 (protein, UniProt P25705 1-553, looked up)
chain: MLSVRVAAAVVRALPRRAGLVSRNALGSSFIAARNFHASNTHLQKTGTAEMSSILEERILGADTSVDLEETGRVLSIGDGIARVHGLRNVQAEEMVEFSSGLKGMSLNLEPDNVGVVVFGNDKLIKEGDIVKRTGAIVDVPVGEELLGRVVDALGNAIDGKGPIGSKTRRRVGLKAPGIIPRISVREPMQTGIKAVDSLVPIGRGQRELIIGDRQTGKTSIAIDTIINQKRFNDGSDEKKKLYCIYVAIGQKRSTVAQLVKRLTDADAMKYTIVVSATASDAAPLQYLAPYSGCSMGEYFRDNGKHALIIYDDLSKQAVAYRQMSLLLRRPPGREAYPGDVFYLHSRLLERAAKMNDAFGGGSLTALPVIETQAGDVSAYIPTNVISITDGQIFLETELFYKGIRPAINVGLSVSRVGSAAQTRAMKQVAGTMKLELAQYREVAAFAQFGSDLDAATQQLLSRGVRLTELLKQGQYSPMAIEEQVAVIYAGVRGYLDKLEPSKITKFENAFLSHVVSQHQALLGTIRADGKISEQSDAKLKEIVTNFLAGFEA
modifications: full-length
B4: O43865 (protein, UniProt O43865 1-530, looked up)
chain: MSMPDAMPLPGVGEELKQAKEIEDAEKYSFMATVTKAPKKQIQFADDMQEFTKFPTKTGRRSLSRSISQSSTDSYSSAASYTDSSDDEVSPREKQQTNSKGSSNFCVKNIKQAEFGRREIEIAEQDMSALISLRKRAQGEKPLAGAKIVGCTHITAQTAVLIETLCALGAQCRWSACNIYSTQNEVAAALAEAGVAVFAWKGESEDDFWWCIDRCVNMDGWQANMILDDGGDLTHWVYKKYPNVFKKIRGIVEESVTGVHRLYQLSKAGKLCVPAMNVNDSVTKQKFDNLYCCRESILDGLKRTTDVMFGGKQVVVCGYGEVGKGCCAALKALGAIVYITEIDPICALQACMDGFRVVKLNEVIRQVDVVITCTGNKNVVTREHLDRMKNSCIVCNMGHSNTEIDVTSLRTPELTWERVRSQVDHVIWPDGKRVVLLAEGRLLNLSCSTVPTFVLSITATTQALALIELYNAPEGRYKQDVYLLPKKMDEYVASLHLPSFDAHLTELTDDQAKYLGLNKNGPFKPNYYRY
modifications: full-length
B5: O00469 (protein, UniProt O00469 1-737, looked up)
chain: MGGCTVKPQLLLLALVLHPWNPCLGADSEKPSSIPTDKLLVITVATKESDGFHRFMQSAKYFNYTVKVLGQGEEWRGGDGINSIGGGQKVRLMKEVMEHYADQDDLVVMFTECFDVIFAGGPEEVLKKFQKANHKVVFAADGILWPDKRLADKYPVVHIGKRYLNSGGFIGYAPYVNRIVQQWNLQDNDDDQLFYTKVYIDPLKREAINITLDHKCKIFQTLNGAVDEVVLKFENGKARAKNTFYETLPVAINGNGPTKILLNYFGNYVPNSWTQDNGCTLCEFDTVDLSAVDVHPNVSIGVFIEQPTPFLPRFLDILLTLDYPKEALKLFIHNKEVYHEKDIKVFFDKAKHEIKTIKIVGPEENLSQAEARNMGMDFCRQDEKCDYYFSVDADVVLTNPRTLKILIEQNRKIIAPLVTRHGKLWSNFWGALSPDGYYARSEDYVDIVQGNRVGVWNVPYMANVYLIKGKTLRSEMNERNYFVRDKLDPDMALCRNAREMGVFMYISNRHEFGRLLSTANYNTSHYNNDLWQIFENPVDWKEKYINRDYSKIFTENIVEQPCPDVFWFPIFSEKACDELVEEMEHYGKWSGGKHHDSRISGGYENVPTDDIHMKQVDLENVWLHFIREFIAPVTLKVFAGYYTKGFALLNFVVKYSPERQRSLRPHHDASTFTINIALNNVGEDFQGGGCKFLRYNCSIESPRKGWSFMHPGRLTHLHEGLPVKNGTRYIAVSFIDP
modifications: full-length
B6: Q96MG2 (protein, UniProt Q96MG2 1-331, looked up)
chain: MSMTTRAWEELDGGLGSCQALEDHSALAETQEDRASATPRLADSGSVPHDSQVAEGPSVDTRPKKMEKEPAARGTPGTGKERLKAGASPRSVPARKKAQTAPPLQPPPPPPALSEELPWGDLSLNKCLVLASLVALLGSAFQLCRDAVPGEAALQARVPEPWVPPSSAPREPSSPLPKFEAQAPPSAPPAPRAEAEVRPKIPGSREAAENDEEEPGEATGEAVREDRVTLADRGPKERPRREGKPRKEKPRKEERPKKERPRKEERPRAAREPREALPQRWESREGGHRPWARDSRDAEPRKKQAWVSPRRPDEEQRPGSRQKLRAGKGRD
modifications: full-length
B7: Q14240 (protein, UniProt Q14240 1-407, looked up)
chain: MSGGSADYNREHGGPEGMDPDGVIESNWNEIVDNFDDMNLKESLLRGIYAYGFEKPSAIQQRAIIPCIKGYDVIAQAQSGTGKTATFAISILQQLEIEFKETQALVLAPTRELAQQIQKVILALGDYMGATCHACIGGTNVRNEMQKLQAEAPHIVVGTPGRVFDMLNRRYLSPKWIKMFVLDEADEMLSRGFKDQIYEIFQKLNTSIQVVLLSATMPTDVLEVTKKFMRDPIRILVKKEELTLEGIKQFYINVEREEWKLDTLCDLYETLTITQAVIFLNTRRKVDWLTEKMHARDFTVSALHGDMDQKERDVIMREFRSGSSRVLITTDLLARGIDVQQVSLVINYDLPTNRENYIHRIGRGGRFGRKGVAINFVTEEDKRILRDIETFYNTTVEEMPMNVADLI
modifications: full-length
B8: A0A087WW87 (protein, UniProt A0A087WW87 1-121, looked up)
chain: MRLPAQLLGLLMLWVPGSSEDIVMTQTPLSLPVTPGEPASISCRSSQSLLDSDDGNTYLDWYLQKPGQSPQLLIYTLSYRASGVPDRFSGSGSGTDFTLKISRVEAEDVGVYYCMQRIEFP
modifications: full-length
B9: P20020 (protein, UniProt P20020 1-1220, looked up)
chain: MGDMANNSVAYSGVKNSLKEANHDGDFGITLAELRALMELRSTDALRKIQESYGDVYGICTKLKTSPNEGLSGNPADLERREAVFGKNFIPPKKPKTFLQLVWEALQDVTLIILEIAAIVSLGLSFYQPPEGDNALCGEVSVGEEEGEGETGWIEGAAILLSVVCVVLVTAFNDWSKEKQFRGLQSRIEQEQKFTVIRGGQVIQIPVADITVGDIAQVKYGDLLPADGILIQGNDLKIDESSLTGESDHVKKSLDKDPLLLSGTHVMEGSGRMVVTAVGVNSQTGIIFTLLGAGGEEEEKKDEKKKEKKNKKQDGAIENRNKAKAQDGAAMEMQPLKSEEGGDGDEKDKKKANLPKKEKSVLQGKLTKLAVQIGKAGLLMSAITVIILVLYFVIDTFWVQKRPWLAECTPIYIQYFVKFFIIGVTVLVVAVPEGLPLAVTISLAYSVKKMMKDNNLVRHLDACETMGNATAICSDKTGTLTMNRMTVVQAYINEKHYKKVPEPEAIPPNILSYLVTGISVNCAYTSKILPPEKEGGLPRHVGNKTECALLGLLLDLKRDYQDVRNEIPEEALYKVYTFNSVRKSMSTVLKNSDGSYRIFSKGASEIILKKCFKILSANGEAKVFRPRDRDDIVKTVIEPMASEGLRTICLAFRDFPAGEPEPEWDNENDIVTGLTCIAVVGIEDPVRPEVPDAIKKCQRAGITVRMVTGDNINTARAIATKCGILHPGEDFLCLEGKDFNRRIRNEKGEIEQERIDKIWPKLRVLARSSPTDKHTLVKGIIDSTVSDQRQVVAVTGDGTNDGPALKKADVGFAMGIAGTDVAKEASDIILTDDNFTSIVKAVMWGRNVYDSISKFLQFQLTVNVVAVIVAFTGACITQDSPLKAVQMLWVNLIMDTLASLALATEPPTESLLLRKPYGRNKPLISRTMMKNILGHAFYQLVVVFTLLFAGEKFFDIDSGRNAPLHAPPSEHYTIVFNTFVLMQLFNEINARKIHGERNVFEGIFNNAIFCTIVLGTFVVQIIIVQFGGKPFSCSELSIEQWLWSIFLGMGTLLWGQLISTIPTSRLKFLKEAGHGTQKEEIPEEELAEDVEEIDHAERELRRGQILWFRGLNRIQTQIRVVNAFRSSLYEGLEKPESRSSIHNFMTHPEFRIEDSEPHIPLIDDTDAEDDAPTKRNSSPPPSPNKNNNAVDSGIHLTIEMNKSATSSSPGSPLHSLETSL
modifications: full-length

System: proteins that co-immunoprecipitated with DUX4-CTD constructs expressed in MB135 myoblasts
Assay: LC-MS of proteins co-immunoprecipitated with DUX4-CTD (Table 1) and western validation
Assay type: binding, human
Design: key to 4. mL1dL2 + Dox + IFNG / 4. + IFNG mix / 4. longCTD + Dox + IFNG / 3. + IFNg + Dox longCTD / 3. + Dox longCTD / 3. + IFNG longCTD: peptide-spectrum matches (PSMs) per protein
Settings: for 4. longCTD + Dox + IFNG: LC-MS counts of the listed protein co-immunoprecipitated with DUX4-CTD bait longCTD, experiment 4, Dox + IFNG; for 3. + Dox longCTD / 3. + IFNg + Dox longCTD: bait longCTD; for 3. + Dox longCTD: experiment 3, Dox only; for 3. + IFNg + Dox longCTD: experiment 3, IFNg + Dox; for SUM of PSMS: sum over all samples
Procedure, shortened: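 Two independent experiments compared uninduced, doxycycline and doxycycline+IFNG MB135iDUX4-CTD (plus MB135iDUX4mL1dL2) myoblasts. Anti-FLAG pulldowns (3 h, 4 °C) were eluted in LDS buffer for western validation or with FLAG peptide for trypsin digestion and Orbitrap LC-MS; hits needed ≥2 PSMs in both experiments, ranked by total PSMs.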

Molecule | 4. longCTD + Dox + IFNG | 3. + Dox longCTD | 3. + IFNg + Dox longCTD | SUM of PSMS
B1 | 9 | 9 | 21 | 46
B2 | 11 |  | 1 | 29
B3 | 4 | 1 | 2 | 17
B4 |  | 7 | 11 | 19
B5 | 7 |  | 3 | 25
B6 | 3 | 4 | 10 | 18
B7 | 6 | 1 |  | 7
B8 | 5 | 2 | 2 | 15
B9 | 13 | 1 | 1 | 36

From US20250339531A1, “DUX4 POLYPEPTIDES AND NUCLEIC ACIDS FOR TREATING INFLAMMATORY AND AUTOIMMUNE CONDITIONS” (Fred Hutchinson Cancer Center, priority 2021, published 2025)
